Non-standard residues stand in square brackets, D forms with d. No end group written: not given here.
Columns and labels:
GFP-FOXM1(688-748) = biological target: T1, GFP-FOXM1(688-748) (human); assay: MST
T1 construct: also called GFP-M1(688–748); FOXM1 C-terminus
T1 sequence (Q08050 688-748, looked up): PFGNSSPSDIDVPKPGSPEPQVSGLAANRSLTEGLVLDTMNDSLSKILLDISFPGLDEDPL

GFP-FOXM1(1-138) = biological target: T2, GFP-FOXM1(1-138) (human, UniProt Q08050 1-138); assay: MST
T2 construct: also called GFP-M1(1-138); FOXM1 N-terminal domain
T2 sequence (looked up): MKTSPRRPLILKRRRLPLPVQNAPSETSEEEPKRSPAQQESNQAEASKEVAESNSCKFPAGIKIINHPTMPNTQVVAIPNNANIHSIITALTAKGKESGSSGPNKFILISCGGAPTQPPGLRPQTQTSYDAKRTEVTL

GFP-FOXM1(232-332) = biological target: T3, GFP-FOXM1(232-332) (human, UniProt Q08050-3 232-332); assay: MST
T3 construct: also called GFP-M1(232–332); FOXM1 DBD
T3 sequence (looked up): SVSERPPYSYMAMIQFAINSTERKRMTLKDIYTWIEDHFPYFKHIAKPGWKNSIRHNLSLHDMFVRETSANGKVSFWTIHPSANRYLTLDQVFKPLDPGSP

GFP-FOXM1 = biological target: T4, GFP-FOXM1 (human, UniProt Q08050-3 1-801); assay: MST
T4 sequence (looked up): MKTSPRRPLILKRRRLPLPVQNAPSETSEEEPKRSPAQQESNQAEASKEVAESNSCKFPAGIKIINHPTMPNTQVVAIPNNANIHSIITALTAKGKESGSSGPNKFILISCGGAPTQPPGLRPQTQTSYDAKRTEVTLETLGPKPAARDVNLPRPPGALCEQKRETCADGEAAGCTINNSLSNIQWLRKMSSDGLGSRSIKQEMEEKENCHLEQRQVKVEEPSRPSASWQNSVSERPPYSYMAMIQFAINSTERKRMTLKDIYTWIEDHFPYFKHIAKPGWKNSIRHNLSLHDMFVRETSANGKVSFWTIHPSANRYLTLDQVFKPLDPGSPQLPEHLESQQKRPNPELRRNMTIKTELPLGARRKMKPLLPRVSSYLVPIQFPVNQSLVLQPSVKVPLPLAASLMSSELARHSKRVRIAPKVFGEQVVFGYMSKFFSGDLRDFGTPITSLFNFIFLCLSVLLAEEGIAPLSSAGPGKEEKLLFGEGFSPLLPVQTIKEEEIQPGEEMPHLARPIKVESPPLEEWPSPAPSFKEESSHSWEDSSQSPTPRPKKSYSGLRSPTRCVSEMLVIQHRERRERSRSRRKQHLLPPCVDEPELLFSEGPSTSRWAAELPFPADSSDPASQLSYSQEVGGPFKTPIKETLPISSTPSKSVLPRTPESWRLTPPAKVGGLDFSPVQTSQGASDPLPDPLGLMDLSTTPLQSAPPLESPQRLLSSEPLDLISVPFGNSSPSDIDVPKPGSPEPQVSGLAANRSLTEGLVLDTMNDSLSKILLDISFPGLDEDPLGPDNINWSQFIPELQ

endogenous FOXM1 protein = biological target: T5, endogenous FOXM1 protein (human (endogenous in 293T and …, UniProt Q08050 1-763)); assay: cell-based or functional assay
T5 sequence (looked up): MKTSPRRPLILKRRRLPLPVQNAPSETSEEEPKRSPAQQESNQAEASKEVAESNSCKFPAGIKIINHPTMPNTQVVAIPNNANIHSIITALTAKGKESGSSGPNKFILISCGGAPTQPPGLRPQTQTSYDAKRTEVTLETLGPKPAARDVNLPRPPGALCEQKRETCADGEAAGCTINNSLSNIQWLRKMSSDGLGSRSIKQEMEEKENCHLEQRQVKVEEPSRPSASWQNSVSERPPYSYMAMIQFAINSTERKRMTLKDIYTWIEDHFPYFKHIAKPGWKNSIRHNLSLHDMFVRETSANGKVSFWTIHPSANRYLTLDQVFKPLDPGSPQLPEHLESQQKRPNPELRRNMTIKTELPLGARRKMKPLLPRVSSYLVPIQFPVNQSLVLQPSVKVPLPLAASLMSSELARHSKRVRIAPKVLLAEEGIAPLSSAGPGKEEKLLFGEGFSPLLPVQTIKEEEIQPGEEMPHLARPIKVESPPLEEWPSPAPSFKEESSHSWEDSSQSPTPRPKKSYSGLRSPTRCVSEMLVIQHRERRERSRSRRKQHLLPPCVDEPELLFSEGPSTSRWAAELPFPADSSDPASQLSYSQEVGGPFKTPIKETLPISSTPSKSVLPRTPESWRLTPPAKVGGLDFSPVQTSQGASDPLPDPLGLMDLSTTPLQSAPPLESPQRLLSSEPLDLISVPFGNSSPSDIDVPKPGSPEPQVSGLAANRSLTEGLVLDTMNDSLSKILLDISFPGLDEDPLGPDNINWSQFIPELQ

B1: M1-21 (peptide)
chain: [dQ][dT][dQ][dP][dR][dL]G[dP][dP][dQ][dT][dP][dA]GG[dC][dS][dI][dL][dI][dF]
modifications: not fully specified; also: retro-inverso, chain direction relative to parent not given here
GFP-FOXM1(688-748)
  Kd: 1.79 µM
GFP-FOXM1(1-138)
  Kd: 6.27 µM
GFP-FOXM1(232-332)
  Kd: 5.71 µM
GFP-FOXM1
  Kd: 12.5 µM
Endogenous FOXM1 protein
  IC50 of cell viability, MDA-MB-231 cells, 48 h (trypan blue): 33.8 µM

From article PMC10286459, “The development of an anti-cancer peptide M1-21 targeting transcription factor FOXM1” (Cell & Bioscience, 2023)
